B1: MKP5 catalytic domain (MKP5-CD, residues 320-467) (domain or fragment)
chain: AELTPILPFLFLGNEQDAQDLDTMQRLNIGYVINVTTHLPLYHYEKGLFNYKRLPATDSNKQNLRQYFEEAFEFIEEAHQCGKGLLIHCQAGVSRSATIVIAYLMKHTRMTMTDAYKFVKGKRPIISPNLNFMGQLLEFEEDLNNGVT
B2: MKP7-CD (F285A) (domain or fragment)
chain: NIGPTRILPNLYLGCQRDVLNKELMQQNGIGYVLNASNTCPKPDFIPESHFLRVPVNDSFCEKILPWLDKSVDFIEKAKASNGCVLVHCLAGISRSATIAIAYIMKRMDMSLDEAYRFVKEKRPTISPNANFLGQLLDYEKKIKNQ

Assays:
[1] = biological target: double-phosphorylated JNK1 (phospho-JNK1) (human)
[2] = biological target: double-phosphorylated JNK1 (phospho-JNK1) (human); remark: listed apart in the source

| Binder | Km of MKP5-CD for pJNK1 substrate, relative to that of MKP7-CD [1] [fold] | phosphatase activity for JNK1 dephosphorylation, relative to wild-type MKP7-CD (Fig. 4a) [2] [fold] |
| --- | --- | --- |
| B1 | 20 | – |
| B2 | – | 10 |

— PMC4802042
